According to patent publication US20240343799A1 (Innovent, published 2024):
Where a chain is given by its changes, count along the chain named.

T1: human CD79b (recombinant antigen in the ForteBio assays) (human, UniProt P40259 29-159)
T1 construct: the immunogen was CD79b protein from Sino, Cat #29750-H08H; also called huCD79b
T1 sequence (looked up): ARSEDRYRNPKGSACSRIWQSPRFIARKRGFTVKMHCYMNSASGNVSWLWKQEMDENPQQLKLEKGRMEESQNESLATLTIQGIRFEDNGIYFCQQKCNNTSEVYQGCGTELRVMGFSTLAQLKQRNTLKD

T2: CD79b on the surface of B-cell non-Hodgkin's lymphoma cells (human, UniProt P40259 29-229)
T2 construct: whole, on cells; Endogenous CD79b of the cell lines; on cells it stands in the B cell receptor complex with CD79a; also called CD79b on Ramos cells; CD79b on BJAB cells
T2 sequence (looked up): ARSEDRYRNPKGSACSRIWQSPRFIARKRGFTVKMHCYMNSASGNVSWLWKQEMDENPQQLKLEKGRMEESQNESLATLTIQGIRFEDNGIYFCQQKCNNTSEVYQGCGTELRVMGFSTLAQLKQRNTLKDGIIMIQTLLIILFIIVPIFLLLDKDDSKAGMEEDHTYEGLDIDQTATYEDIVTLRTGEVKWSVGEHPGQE

B1: hz34F1.14 (antibody, V domains shown)
VH: QVQLVQSGAEVKKPGASVKVSCKASGYSFTTYWMNWVRQAPGQGLTWMGMIDPSDSETHYNHLFKDRVTMTVDKSTSTAYMELSSLRSEDTAVYYCTRAIGYWGQGTLVTVSS
VL: DVVMTQSPLSLPVTLGQPASISCKSSLSLLDSEGKTYLNWFQQRPGQSPRPLISLVSKLDSGVPDRFSGSGSGTDFTLKISRVEAEDVGVYYCWQGTHFPLTFGGGTKVEIK
B2: hz11G10.9.p1 (antibody, V domains shown)
VH: QVQLVQSGAEVKKPGASVKVSCKASGYTFTDYWVNWVRQAPGQGLEWMGMIDPSDSETHYNQMFNDRVTMTVDTSTSTVYMELSSLRSEDTAVYYCTRSNYYWGQGTLVTVSS
VL: DIVMTQTPLSLSVTPGQPASISCKSSQSLLDSEGKTYLNWLLQKPGQSPQSLIYLVSKLDSGVPDRFSGSGSGTDFTLKISRVEAEDVGVYYCWQGTHFPLTFGGGTKVEIK
notes: Humanized monospecific anti-CD79b antibody; also called 11G10.9.01
B3: hz38D9B3.11 (antibody, V domains shown)
VH: QVQLVQSGSELKKPGASVKVSCKASGYTFTDYSMHWVRQAPGQGLEWMGWINTETGEPSYADDFKGRFVFSLDTSVSTAYLQISSLKAEDTAVYYCYYGPYWGQGTLVTVSS
VL: EIVLTQSPATLSLSPGERATLSCKASQSVDHDVDSYMDWYQQKPGQAPRLLIYSASNLESGIPARFSGSGSGTDFTLTISSLEPEDFAVYYCQQINEYPYTFGGGTKVEIK
notes: Humanized monospecific anti-CD79b antibody
B4: A7v14b (antibody, V domains shown)
VH: EVQLVQSGAEVKKPGASVKVSCKASGYTFTTYYMNWVRQAPGQGLEWIGMIDPSDSETHYNQKFQGRATLTVDTSTSTAYLELSSLRSEDTAVYYCSRSLAFWGQGTLVTVSS
VL: B2 VL with S12P, E33D, L101Q, G105Q
notes: also called CD79b.A7v14b
B5: polmab (antibody, human IgG1, kappa, V domains shown)
VH: EVQLVESGGGLVQPGGSLRLSCAASGYTFSSYWIEWVRQAPGKGLEWIGEILPGGGDTNYNEIFKGRATFSADTSKNTAYLQMNSLRAEDTAVYYCTRRVPIRLDYWGQGTLVTVSS
VL: DIQLTQSPSSLSASVGDRVTITCKASQSVDYEGDSFLNWYQQKPGKAPKLLIYAASNLESGVPSRFSGSGSGTDFTLTISSLQPEDFATYYCQQSNEDPLTFGQGTKVEIKR

How the values were obtained:
[1] = biological target: T1, human CD79b (recombinant antigen in the …); assay: BLI (ForteBio), antibody loaded on sensor, antigen in solution
Experimental: (§1) Briefly, an AMQ (Pall, 1506091) sensor was equilibrated offline in an assay buffer for 30 min and then equilibrated online for 60 s to establish a baseline. The purified antibodies obtained as described above were each loaded online onto an AHQ sensor (ForteBio) for the ForteBio affinity assay. The sensor with the loaded antibody was then exposed to antigen CD79b before transferring the sensor to the assay buffer to measure the dissociation rate. The KD values were analyzed using ForteBio analysis software.
The equilibrium dissociation constants (KD) for the binding of the humanized antibodies of the present invention to human CD79b were determined by ForteBio.

[2] = biological target: T2, CD79b on the surface of B-cell …; assay: flow cytometry on Ramos cells, goat anti-human IgG PE
Experimental: (§2) Ramos (ATCC, Cat #CRL-1596) and BJAB (AddexBio, USA, Cat #C0003016) were passaged according to the conventional procedures. Cells were counted after centrifugation and resuspension, adjusted to a density of 4×10⁶ cells/mL, poured into a loading tank, and seeded to a 96-well plate at 50 μL/well using a multichannel pipettor. 50 μL of the antibody sample diluted in gradient was added to the 50 μL of cells in each well, and the mixture was then incubated in an incubator at 5% CO₂ and 37° C. for 30 min. The mixture was centrifuged at 400 g for 5 min, then 200 μL of PBS was added, and the resulting mixture was centrifuged at 400 g for 5 min. This procedure was repeated 3 times. Goat anti-human IgG PE (1:200) was added, and the mixture was incubated for 30 min in the dark at room temperature. The mixture was washed with 200 μL of PBS twice, centrifuged, and then resuspended in 100 μL of PBS, and the values were read using a flow cytometer. The values were fitted to obtain a curve and EC₅₀ values were calculated.
(§3) The binding of the humanized antibodies to Ramos and BJAB cells was detected by flow cytometry. The assay was the same as in Example 4. The binding of the humanized antibodies to CD79b on the surface of Ramos cells is shown in FIG. 3; the binding of the humanized antibodies to CD79b on the surface of BJAB cells is shown in FIG. 4.

[3] = biological target: T2, CD79b on the surface of B-cell …; assay: flow cytometry on BJAB cells, goat anti-human IgG PE
Experimental: as §2, §3

[4] = biological target: T1, human CD79b (recombinant antigen in the …); assay: BLI (ForteBio), antibody loaded on sensor, antigen in solution; remark: listed apart in the source
Experimental: The equilibrium dissociation constants (KD) for binding of the antibodies of the present invention to CD79b were determined by bio-layer interferometry (ForteBio). A ForteBio affinity assay of prior art was performed (Estep, P., et al., “High throughput solution Based measurement of antibody-antigen affinity and epitope binning”, MAbs, 2013.5 (2): 270-8).
as §1

[5] = biological target: T1, human CD79b (recombinant antigen in the …); assay: BLI (ForteBio)

Binder	Kd [1] [nM]	EC50 (read off the curve) [2] [nM]	EC50 (read off the curve) [3] [nM]	Kd [4] [nM]	Kd [5] [nM]
B1	2.53	~20	~10	–	–
B2	1.35	~5	~4	–	–
B3	0.274	~2	~2	–	–
B4	1.84	~4	~3	1.84	–
B5	12.7	~3	~2	12.7	13.7
